Data reported in the supplement of paper PMC11246515.
± gives the standard deviation of the averaged measurements.

Assay: total protein half-life in vivo (active degradation + dilution); higher = more stable protein
[1] = E. coli NCM3722 delta-clpP delta-lon delta-hslV, growth: N-lim chemostat, doubling time 6 h
[2] = E. coli NCM3722 delta-clpP, growth: N-lim chemostat, doubling time 6 h
[3] = E. coli NCM3722 delta-hslV, growth: N-lim chemostat, doubling time 6 h
[4] = E. coli NCM3722 delta-lon, growth: N-lim chemostat, doubling time 6 h
[5] = E. coli NCM3722 delta-smpB, growth: N-lim chemostat, doubling time 6 h
[6] = wild type E. coli NCM3722, growth: C-lim chemostat, doubling time 12 h
[7] = wild type E. coli NCM3722, growth: N-lim chemostat, doubling time 6 h
[8] = wild type E. coli NCM3722, growth: N-lim chemostat, doubling time 12 h
[9] = wild type E. coli NCM3722, growth: P-lim chemostat, doubling time 6 h
[10] = wild type E. coli NCM3722, growth: P-lim chemostat, doubling time 12 h
[11] = wild type E. coli NCM3722, growth: C-lim chemostat, doubling time 3 h
[12] = wild type E. coli NCM3722, growth: C-lim chemostat, doubling time 6 h

Row | Sequence | total protein half-life in vivo [1] [h] | total protein half-life in vivo [2] [h] | total protein half-life in vivo [3] [h] | total protein half-life in vivo [4] [h] | total protein half-life in vivo [5] [h] | total protein half-life in vivo [6] [h] | total protein half-life in vivo [7] [h] | total protein half-life in vivo [8] [h] | total protein half-life in vivo [9] [h] | total protein half-life in vivo [10] [h] | total protein half-life in vivo [11] [h] | total protein half-life in vivo [12] [h]
1 | MRVLLFLLLSLFMLPAFSADNLLRWHDAQHFTVQASTPLKAKRAWKLCALYPSLKDSYWLSLNYGMQEAARRYGVDLKVLEAGGYSQLATQQAQIDQCKQWGAEAILLGSSTTSFPDLQKQVASLPVIELVNAIDAPQVKSRVGVPWFQMGYQPGRYLVQWAHGKPLNVLLMPGPDNAGGSKEMVEGFRAAIAGSPVRIVDIALGDNDIEIQRNLLQEMLERHPEIDVVAGTAIAAEAAMGEGRNLKTPLTVVSFYLSHQVYRGLKRGRVIMAASDQMVWQGELAVEQAIRQLQGQSVSDNVSPPILVLTPKNADREHIRRSLSPGGFRPVYFYQHTSAAKK | 6.15 ± 0.33 | 5.43 ± 0.75 | 3.15 ± 0.62 | 4.15 ± 1.5 | 3.08 | 4.04 | 3.87 ± 1.8 | 9.91 ± 3.2 | 4.02 | 6.77 ± 2.5 | – | –
2 | MNVIRTEIEDVLILEPRVFGDDRGFFYESFNQSAFEHILGYPVSFVQDNHSRSSKNVLRGLHFQRGEYAQDKLVRCTHGAVFDVAVDIRPNSVSFGKWVGVLLSADNKQQLWIPKGFAHGFLVLSDIAEFQYKTTNYYHPESDCGICWNDERIAIDWPQTSGLILSPKDERLFTLDELIRLKLIA | 6.28 | – | – | 3.33 ± 0.14 | – | – | – | 3.7 | – | – | – | –
3 | MKLTLKNLSMAIMMSTIVMGSSAMAADSNEKIVIAHRGASGYLPEHTLPAKAMAYAQGADYLEQDLVMTKDDNLVVLHDHYLDRVTDVADRFPDRARKDGRYYAIDFTLDEIKSLKFTEGFDIENGKKVQTYPGRFPMGKSDFRVHTFEEEIEFVQGLNHSTGKNIGIYPEIKAPWFHHQEGKDIAAKTLEVLKKYGYTGKDDKVYLQCFDADELKRIKNELEPKMGMELNLVQLIAYTDWNETQQKQPDGSWVNYNYDWMFKPGAMKQVAEYADGIGPDYHMLIEETSQPGNIKLTGMVQDAQQNKLVVHPYTVRSDKLPEYTPDVNQLYDALYNKAGVNGLFTDFPDKAVKFLNKE | 5.71 ± 0.74 | 6.03 ± 0.55 | 5.36 ± 0.34 | 7.08 ± 0.86 | 4.739 ± 0.036 | 11.4 ± 0.14 | 5.53 ± 0.091 | 10.9 ± 1.6 | 5.23 ± 0.11 | 11.7 ± 0.17 | 3.12 ± 0.32 | 6.48 ± 0.5
4 | MSHQKIIQDLIAWIDEHIDQPLNIDVVAKKSGYSKWYLQRMFRTVTHQTLGDYIRQRRLLLAAVELRTTERPIFDIAMDLGYVSQQTFSRVFRRQFDRTPSDYRHRL [P0A9E2] | 6.13 ± 1.3 | – | – | – | – | – | – | – | – | – | – | –
5 | MSKSTAEIRQAFLDFFHSKGHQVVASSSLVPHNDPTLLFTNAGMNQFKDVFLGLDKRNYSRATTSQRCVRAGGKHNDLENVGYTARHHTFFEMLGNFSFGDYFKHDAIQFAWELLTSEKWFALPKERLWVTVYESDDEAYEIWEKEVGIPRERIIRIGDNKGAPYASDNFWQMGDTGPCGPCTEIFYDHGDHIWGGPPGSPEEDGDRYIEIWNIVFMQFNRQADGTMEPLPKPSVDTGMGLERIAAVLQHVNSNYDIDLFRTLIQAVAKVTGATDLSNKSLRVIADHIRSCAFLIADGVMPSNENRGYVLRRIIRRAVRHGNMLGAKETFFYKLVGPLIDVMGSAGEDLKRQQAQVEQVLKTEEEQFARTLERGLALLDEELAKLSGDTLDGETAFRLYDTYGFPVDLTADVCRERNIKVDEAGFEAAMEEQRRRAREASGFGADYNAMIRVDSASEFKGYDHLELNGKVTALFVDGKAVDAINAGQEAVVVLDQTPFYAESGGQVGDKGELKGANFSFAVEDTQKYGQAIGHIGKLAAGSLKVGDAVQADVDEARRARIRLNHSATHLMHAALRQVLGTHVSQKGSLVNDKVLRFDFSHNEAMKPEEIRAVEDLVNTQIRRNLPIETNIMDLEAAKAKGAMALFGEKYDERVRVLSMGDFSTELCGGTHASRTGDIGLFRIISESGTAAGVRRIEAVTGEGAIATVHADSDRLSEVAHLLKGDSNNLADKVRSVLERTRQLEKELQQLKEQAAAQESANLSSKAIDVNGVKLLVSELSGVEPKMLRTMVDDLKNQLGSTIIVLATVVEGKVSLIAGVSKDVTDRVKAGELIGMVAQQVGGKGGGRPDMAQAGGTDAAALPAALASVKGWVSAKLQ | 5.338 ± 0.0061 | 5.33 ± 0.19 | 5.65 ± 0.48 | 5.67 ± 0.09 | 5.06 ± 0.068 | 11 ± 0.2 | 5.11 ± 0.11 | 9.15 ± 0.27 | 6.2 ± 0.075 | 11.9 ± 0.62 | 3.04 ± 0.14 | 6.01 ± 0.44
6 | MHTSELLKHIYDINLSYLLLAQRLIVQDKASAMFRLGINEEMATTLAALTLPQMVKLAETNQLVCHFRFDSHQTITQLTQDSRVDDLQQIHTGIMLSTRLLNDVNQPEEALRKKRA [P0A8S9] | 6.51 ± 0.47 | – | – | – | – | – | – | – | – | – | 0.799 | –
7 | MKIITCFKLVPEEQDIVVTPEYTLNFDNADAKISQFDLNAIEAASQLATDDDEIAALTVGGSLLQNSKVRKDVLSRGPHSLYLVQDAQLEHALPLDTAKALAAAIEKIGFDLLIFGEGSGDLYAQQVGLLVGEILQLPVINAVSAIQRQGNTLVIERTLEDDVEVIELSVPAVLCVTSDINVPRIPSMKAILGAGKKPVNQWQASDIDWSQSAPLAELVGIRVPPQTERKHIIIDNDSPEAIAELAEHLKKALN | – | – | – | 4.32 | – | – | – | – | – | – | 0.95 | –
